Reference: publication PMC4909252, “High-resolution NMR structures of the domains of Saccharomyces cerevisiae Tho1”

T1: Tho1 N-terminal SAP domain (Saccharomyces cerevisiae, UniProt P40040 1-50)
T1 chain: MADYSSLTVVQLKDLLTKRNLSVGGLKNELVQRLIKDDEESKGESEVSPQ


Columns and labels:
[1] = target: T1, Tho1 N-terminal SAP domain; test: NMR (15N HSQC); 200 uM protein, 200 uM DNA; 15N HSQC, 200 uM protein and oligo; typical NMR buffer 20 mM potassium phosphate pH 6.5, 100 mM NaCl, 5 mM beta-mercaptoethanol, 10% D2O, 25 C; details: protein: recombinant; tags: His6-lipoyl fusion removed by TEV; 15N-labelled; blunt, self-complementary, 2 copies of one strand
[2] = target: T1, Tho1 N-terminal SAP domain; test: NMR (15N HSQC); 200 uM protein; 15N HSQC, 200 uM protein and oligo; typical NMR buffer 20 mM potassium phosphate pH 6.5, 100 mM NaCl, 5 mM beta-mercaptoethanol, 10% D2O, 25 C; details: protein: recombinant; tags: His6-lipoyl fusion removed by TEV; 15N-labelled; called dsRNA

Binder | binding result [1] | binding result [2]
random dsDNA 12-mer (dsDNA) DNA 1: TCCTGATCAGGA DNA 2: TCCTGATCAGGA | binds | 
GGACAGCUGUCCCUUCGGGGACAGCUGUCC (structured_RNA) [30-mer dsRNA] |  | no binding
